# Ends that are not written are not given here.
# Target: T1, GST-KIXY650A (Y650A variant of CBP KIX) (UniProt P45481 586-665, limits assumed)
# T1 construct: domain: KIX; not shown: GST tag
# Assay: fluorescence polarization, 25 nM fluorescein-labelled peptide, GST-KIXY650A titrated
# T1 sequence (P45481 586-665 Y650A limits assumed): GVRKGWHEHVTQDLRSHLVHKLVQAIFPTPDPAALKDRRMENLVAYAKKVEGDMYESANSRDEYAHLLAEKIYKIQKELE
binder,measurement,value
"GISWPTFEGDDAPVRRLSFFYILLDLYLDAPGVC(acetamidofluorescein)-NH2 (designed binder, also called PPKID6 (unphosphorylated)) [PPKID6^U]",EC50 (read off the curve),~700 nM
